Laboratory results published in patent US20110105397A1, “METHOD FOR TREATING HEART FAILURE WITH STRESSCOPIN-LIKE PEPTIDES” (priority 2009, published 2011).
Positions count from the first letter of the chain named. Where no end group is shown, it is not given here. The star is where a group is joined. Succinimide(1-Et,3-yl) = CCN1C(=O)CC(*)C1=O

T1: human corticotrophin releasing hormone receptor type 2 (CRHR2) (human, UniProt Q13324 1-411)
T1 sequence (looked up): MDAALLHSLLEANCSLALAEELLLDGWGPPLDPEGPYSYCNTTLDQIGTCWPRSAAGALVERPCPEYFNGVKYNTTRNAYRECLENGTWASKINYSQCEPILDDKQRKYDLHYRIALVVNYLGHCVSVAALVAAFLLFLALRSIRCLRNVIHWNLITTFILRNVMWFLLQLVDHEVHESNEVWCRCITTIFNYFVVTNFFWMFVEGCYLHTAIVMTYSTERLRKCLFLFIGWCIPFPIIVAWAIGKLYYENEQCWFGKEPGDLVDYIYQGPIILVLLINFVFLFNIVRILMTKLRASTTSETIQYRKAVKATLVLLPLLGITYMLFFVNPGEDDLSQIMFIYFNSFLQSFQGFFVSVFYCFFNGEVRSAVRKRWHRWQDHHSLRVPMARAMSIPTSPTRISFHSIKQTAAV

B1: Cys-variant of stresscopin peptide with N-Ethylsuccinimide (NES) reactive group SEQ ID NO: 54 (peptide)
peptide: TKFTLSLDVPTNIMNC(Succinimide(1-Et,3-yl))LFNIAKAKNLRAQAAANAHLMAQI-NH2
modifications: N-terminus assumed
SMILES: CC[C@H](C)[C@H](NC(=O)[C@H](CCC(N)=O)NC(=O)[C@H](C)NC(=O)[C@H](CCSC)NC(=O)[C@H](CC(C)C)NC(=O)[C@H](Cc1c[nH]cn1)NC(=O)[C@H](C)NC(=O)[C@H](CC(N)=O)NC(=O)[C@H](C)NC(=O)[C@H](C)NC(=O)[C@H](C)NC(=O)[C@H](CCC(N)=O)NC(=O)[C@H](C)NC(=O)[C@H](CCCNC(=N)N)NC(=O)[C@H](CC(C)C)NC(=O)[C@H](CC(N)=O)NC(=O)[C@H](CCCCN)NC(=O)[C@H](C)NC(=O)[C@H](CCCCN)NC(=O)[C@H](C)NC(=O)[C@@H](NC(=O)[C@H](CC(N)=O)NC(=O)[C@H](Cc1ccccc1)NC(=O)[C@H](CC(C)C)NC(=O)[C@H](CSC1CC(=O)N(CC)C1=O)NC(=O)[C@H](CC(N)=O)NC(=O)[C@H](CCSC)NC(=O)[C@@H](NC(=O)[C@H](CC(N)=O)NC(=O)[C@@H](NC(=O)[C@@H]1CCCN1C(=O)[C@@H](NC(=O)[C@H](CC(=O)O)NC(=O)[C@H](CC(C)C)NC(=O)[C@H](CO)NC(=O)[C@H](CC(C)C)NC(=O)[C@@H](NC(=O)[C@H](Cc1ccccc1)NC(=O)[C@H](CCCCN)NC(=O)[C@@H](N)[C@@H](C)O)[C@@H](C)O)C(C)C)[C@@H](C)O)[C@@H](C)CC)[C@@H](C)CC)C(N)=O
B2: Cys-variant of stresscopin peptide with N-Ethylsuccinimide (NES) reactive group SEQ ID NO: 52 (peptide)
peptide: TKFTLSLDVPTNIMNLLFC(Succinimide(1-Et,3-yl))IAKAKNLRAQAAANAHLMAQI-NH2
modifications: N-terminus assumed
SMILES: CC[C@H](C)[C@H](NC(=O)[C@H](CCC(N)=O)NC(=O)[C@H](C)NC(=O)[C@H](CCSC)NC(=O)[C@H](CC(C)C)NC(=O)[C@H](Cc1c[nH]cn1)NC(=O)[C@H](C)NC(=O)[C@H](CC(N)=O)NC(=O)[C@H](C)NC(=O)[C@H](C)NC(=O)[C@H](C)NC(=O)[C@H](CCC(N)=O)NC(=O)[C@H](C)NC(=O)[C@H](CCCNC(=N)N)NC(=O)[C@H](CC(C)C)NC(=O)[C@H](CC(N)=O)NC(=O)[C@H](CCCCN)NC(=O)[C@H](C)NC(=O)[C@H](CCCCN)NC(=O)[C@H](C)NC(=O)[C@@H](NC(=O)[C@H](CSC1CC(=O)N(CC)C1=O)NC(=O)[C@H](Cc1ccccc1)NC(=O)[C@H](CC(C)C)NC(=O)[C@H](CC(C)C)NC(=O)[C@H](CC(N)=O)NC(=O)[C@H](CCSC)NC(=O)[C@@H](NC(=O)[C@H](CC(N)=O)NC(=O)[C@@H](NC(=O)[C@@H]1CCCN1C(=O)[C@@H](NC(=O)[C@H](CC(=O)O)NC(=O)[C@H](CC(C)C)NC(=O)[C@H](CO)NC(=O)[C@H](CC(C)C)NC(=O)[C@@H](NC(=O)[C@H](Cc1ccccc1)NC(=O)[C@H](CCCCN)NC(=O)[C@@H](N)[C@@H](C)O)[C@@H](C)O)C(C)C)[C@@H](C)O)[C@@H](C)CC)[C@@H](C)CC)C(N)=O
B3: Cys-variant stresscopin-like peptide SEQ ID NO: 2 (peptide)
peptide: CKFTLSLDVPTNIMNLLFNIAKAKNLRAQAAANAHLMAQI-NH2
B4: Cys-variant of stresscopin peptide with N-Ethylsuccinimide (NES) reactive group SEQ ID NO: 50 (peptide)
peptide: TKFTLSLDVPTNIMNLLFNIAKAC(Succinimide(1-Et,3-yl))NLRAQAAANAHLMAQI-NH2
modifications: N-terminus assumed
SMILES: CC[C@H](C)[C@H](NC(=O)[C@H](CCC(N)=O)NC(=O)[C@H](C)NC(=O)[C@H](CCSC)NC(=O)[C@H](CC(C)C)NC(=O)[C@H](Cc1c[nH]cn1)NC(=O)[C@H](C)NC(=O)[C@H](CC(N)=O)NC(=O)[C@H](C)NC(=O)[C@H](C)NC(=O)[C@H](C)NC(=O)[C@H](CCC(N)=O)NC(=O)[C@H](C)NC(=O)[C@H](CCCNC(=N)N)NC(=O)[C@H](CC(C)C)NC(=O)[C@H](CC(N)=O)NC(=O)[C@H](CSC1CC(=O)N(CC)C1=O)NC(=O)[C@H](C)NC(=O)[C@H](CCCCN)NC(=O)[C@H](C)NC(=O)[C@@H](NC(=O)[C@H](CC(N)=O)NC(=O)[C@H](Cc1ccccc1)NC(=O)[C@H](CC(C)C)NC(=O)[C@H](CC(C)C)NC(=O)[C@H](CC(N)=O)NC(=O)[C@H](CCSC)NC(=O)[C@@H](NC(=O)[C@H](CC(N)=O)NC(=O)[C@@H](NC(=O)[C@@H]1CCCN1C(=O)[C@@H](NC(=O)[C@H](CC(=O)O)NC(=O)[C@H](CC(C)C)NC(=O)[C@H](CO)NC(=O)[C@H](CC(C)C)NC(=O)[C@@H](NC(=O)[C@H](Cc1ccccc1)NC(=O)[C@H](CCCCN)NC(=O)[C@@H](N)[C@@H](C)O)[C@@H](C)O)C(C)C)[C@@H](C)O)[C@@H](C)CC)[C@@H](C)CC)C(N)=O
B5: Cys-variant stresscopin-like peptide SEQ ID NO: 3 (peptide)
peptide: TCFTLSLDVPTNIMNLLFNIAKAKNLRAQAAANAHLMAQI-NH2
B6: Pegylated Cys-variant stresscopin-like peptide with NES linker and PEG about 20 kDa SEQ ID NO: 55 (peptide)
peptide: CKFTLSLDVPTNIMNLLFNIAKAKNLRAQAAANAHLMAQI
modifications: NES-PEG (about 20 kDa) on Cys 1; C-terminal amide (-NH2)
B7: Pegylated Cys-variant stresscopin-like peptide with NES linker and PEG about 20 kDa SEQ ID NO: 56 (peptide)
peptide: B6 peptide with C1T, K2C
modifications: NES-PEG (about 20 kDa) on Cys 2; C-terminal amide (-NH2)
B8: Cys-variant of stresscopin peptide with N-Ethylsuccinimide (NES) reactive group SEQ ID NO: 53 (peptide)
peptide: TKFTLSLDVPTNIMNLC(Succinimide(1-Et,3-yl))FNIAKAKNLRAQAAANAHLMAQI-NH2
modifications: N-terminus assumed
SMILES: CC[C@H](C)[C@H](NC(=O)[C@H](CCC(N)=O)NC(=O)[C@H](C)NC(=O)[C@H](CCSC)NC(=O)[C@H](CC(C)C)NC(=O)[C@H](Cc1c[nH]cn1)NC(=O)[C@H](C)NC(=O)[C@H](CC(N)=O)NC(=O)[C@H](C)NC(=O)[C@H](C)NC(=O)[C@H](C)NC(=O)[C@H](CCC(N)=O)NC(=O)[C@H](C)NC(=O)[C@H](CCCNC(=N)N)NC(=O)[C@H](CC(C)C)NC(=O)[C@H](CC(N)=O)NC(=O)[C@H](CCCCN)NC(=O)[C@H](C)NC(=O)[C@H](CCCCN)NC(=O)[C@H](C)NC(=O)[C@@H](NC(=O)[C@H](CC(N)=O)NC(=O)[C@H](Cc1ccccc1)NC(=O)[C@H](CSC1CC(=O)N(CC)C1=O)NC(=O)[C@H](CC(C)C)NC(=O)[C@H](CC(N)=O)NC(=O)[C@H](CCSC)NC(=O)[C@@H](NC(=O)[C@H](CC(N)=O)NC(=O)[C@@H](NC(=O)[C@@H]1CCCN1C(=O)[C@@H](NC(=O)[C@H](CC(=O)O)NC(=O)[C@H](CC(C)C)NC(=O)[C@H](CO)NC(=O)[C@H](CC(C)C)NC(=O)[C@@H](NC(=O)[C@H](Cc1ccccc1)NC(=O)[C@H](CCCCN)NC(=O)[C@@H](N)[C@@H](C)O)[C@@H](C)O)C(C)C)[C@@H](C)O)[C@@H](C)CC)[C@@H](C)CC)C(N)=O
B9: Cys-variant of stresscopin peptide with N-Ethylsuccinimide (NES) reactive group SEQ ID NO: 49 (peptide)
peptide: TKFTLSLDVPTNIMNLLFNIAKAKC(Succinimide(1-Et,3-yl))LRAQAAANAHLMAQI-NH2
modifications: N-terminus assumed
SMILES: CC[C@H](C)[C@H](NC(=O)[C@H](CCC(N)=O)NC(=O)[C@H](C)NC(=O)[C@H](CCSC)NC(=O)[C@H](CC(C)C)NC(=O)[C@H](Cc1c[nH]cn1)NC(=O)[C@H](C)NC(=O)[C@H](CC(N)=O)NC(=O)[C@H](C)NC(=O)[C@H](C)NC(=O)[C@H](C)NC(=O)[C@H](CCC(N)=O)NC(=O)[C@H](C)NC(=O)[C@H](CCCNC(=N)N)NC(=O)[C@H](CC(C)C)NC(=O)[C@H](CSC1CC(=O)N(CC)C1=O)NC(=O)[C@H](CCCCN)NC(=O)[C@H](C)NC(=O)[C@H](CCCCN)NC(=O)[C@H](C)NC(=O)[C@@H](NC(=O)[C@H](CC(N)=O)NC(=O)[C@H](Cc1ccccc1)NC(=O)[C@H](CC(C)C)NC(=O)[C@H](CC(C)C)NC(=O)[C@H](CC(N)=O)NC(=O)[C@H](CCSC)NC(=O)[C@@H](NC(=O)[C@H](CC(N)=O)NC(=O)[C@@H](NC(=O)[C@@H]1CCCN1C(=O)[C@@H](NC(=O)[C@H](CC(=O)O)NC(=O)[C@H](CC(C)C)NC(=O)[C@H](CO)NC(=O)[C@H](CC(C)C)NC(=O)[C@@H](NC(=O)[C@H](Cc1ccccc1)NC(=O)[C@H](CCCCN)NC(=O)[C@@H](N)[C@@H](C)O)[C@@H](C)O)C(C)C)[C@@H](C)O)[C@@H](C)CC)[C@@H](C)CC)C(N)=O
B10: Cys-variant of stresscopin peptide with N-Ethylsuccinimide (NES) reactive group SEQ ID NO: 51 (peptide)
peptide: TKFTLSLDVPTNIMNLLFNC(Succinimide(1-Et,3-yl))AKAKNLRAQAAANAHLMAQI-NH2
modifications: N-terminus assumed
SMILES: CC[C@H](C)[C@H](NC(=O)[C@H](CCC(N)=O)NC(=O)[C@H](C)NC(=O)[C@H](CCSC)NC(=O)[C@H](CC(C)C)NC(=O)[C@H](Cc1c[nH]cn1)NC(=O)[C@H](C)NC(=O)[C@H](CC(N)=O)NC(=O)[C@H](C)NC(=O)[C@H](C)NC(=O)[C@H](C)NC(=O)[C@H](CCC(N)=O)NC(=O)[C@H](C)NC(=O)[C@H](CCCNC(=N)N)NC(=O)[C@H](CC(C)C)NC(=O)[C@H](CC(N)=O)NC(=O)[C@H](CCCCN)NC(=O)[C@H](C)NC(=O)[C@H](CCCCN)NC(=O)[C@H](C)NC(=O)[C@H](CSC1CC(=O)N(CC)C1=O)NC(=O)[C@H](CC(N)=O)NC(=O)[C@H](Cc1ccccc1)NC(=O)[C@H](CC(C)C)NC(=O)[C@H](CC(C)C)NC(=O)[C@H](CC(N)=O)NC(=O)[C@H](CCSC)NC(=O)[C@@H](NC(=O)[C@H](CC(N)=O)NC(=O)[C@@H](NC(=O)[C@@H]1CCCN1C(=O)[C@@H](NC(=O)[C@H](CC(=O)O)NC(=O)[C@H](CC(C)C)NC(=O)[C@H](CO)NC(=O)[C@H](CC(C)C)NC(=O)[C@@H](NC(=O)[C@H](Cc1ccccc1)NC(=O)[C@H](CCCCN)NC(=O)[C@@H](N)[C@@H](C)O)[C@@H](C)O)C(C)C)[C@@H](C)O)[C@@H](C)CC)C(N)=O

Target: T1, human corticotrophin releasing hormone …
Assay: cell-based or functional assay

Log DR	pA50	Binder
-0.08 log10	9.55 -log10(M)	B1
0.05 log10	9.42 -log10(M)	B2
0.72 log10	8.97 -log10(M)	B3
-0.01 log10	9.48 -log10(M)	B4
0.72 log10	8.97 -log10(M)	B5
~1.61 log10	~7.93 -log10(M)	B6
~2.34 log10	~7.2 -log10(M)	B7
~2.22 log10	~7.25 -log10(M)	B8
0.11 log10	9.36 -log10(M)	B9
0.68 log10	8.79 -log10(M)	B10
